The results in this text go back to paper PMC6753139, “TRIM66 reads unmodified H3R2K4 and H3K56ac to respond to DNA damage in embryonic stem cells” (Nature Communications, 2019).

For orientation: stoichiometry N means the number of molecules, sites or subunits per partner or assembly. As usually defined, the Kd is a measure of binding affinity in units of concentration.

The target in assay [1] is TRIM66-WT_(965-1160) (PHD-Bromodomain) (human) (UniProt O15016). Description: ITC; MicroCal PEAQ-ITC, 25 °C, 20 mM Tris, 100 mM NaCl, pH 7.5; 0.7-4 mM peptide injected into the cell with 0.12 mM TRIM24-PHD-Bromo, 0.05 mM TRIM33 PHD-Bromo, or 0.05 or 0.11-[…] TRIM66-PHD-Bromo (or its mutants); single measurement, errors from the fitting curve. (In ITC the heat of successive injections is recorded.)

Assay [2] deals with TRIM66-GSGS_(968-1160) (PHD-Bromodomain) (human) (UniProt O15016). The description is as above.
The target of assay [3] is TRIM66-WT_(965-1160) (human) (UniProt O15016). Description: ITC; 0.7–4 mM peptide injected into a cell with 0.05 or 0.11–[…] TRIM66-PHD-Bromo (or its mutants), 0.12 mM TRIM24-PHD-Bromo or 0.05 mM TRIM33 PHD-Bromo; 25 °C; 20 mM Tris, 100 mM NaCl, pH 7.5; MicroCal PEAQ-ITC; single measurement.
Assay [4] concerns ESCs. Description: survival analysis of ESCs treated with DNA-damaging agents. The conditions noted are these: TRIM66-depleted ESCs. It is filed as cell-based, mouse. On the procedure: Furthermore, we performed competitive survival experiment through mixing the equal amount of TRIM66-KO ESCs and green fluorescent protein (GFP)-labeled WT ESCs (WT-GFP), then co-cultured for 5 days under EPI treatment.
For the culture of ESCs, the medium was changed every day and the cells were passaged every 2 days. The 293T cells were cultured in DMEM containing 10% fetal bovine serum. […]
a, The expression level of DNA damage related genes (Cdkn1a, Gadd45a, and p53) in WT and TRIM66 KO ESCs […]
assay c in WT and TRIM66 KO ESCs treated with EPI. e, Clonal competition assay of WT and TRIM66 KO ESCs treated with EPI in different days (day 1, 3, and 5). Representative images show the mixtures of WT-GFP and […] clones. Scale bar, 10 μm.* represents a difference from WT ESCs or GFP-negative ESC clones at day 1, # indicates a difference from GFP-positive ESC clones at day 1. Statistical significance is determined by two-tailed
(1 picture or pasted object on this page, not shown here)

For assay [5], the system named is ESCs. Description: survival with DNA repair inhibitors (HR, NHEJ). In kind it is cell-based, mouse. The conditions noted are these: TRIM66-depleted ESCs under EPI treatment with HR or NHEJ inhibitor. From the text:
reagent (Fig. S9b, c). We further performed the competitive survival experiment through co-culturing the GFP-labeled wild-type ESCs and TRIM66 KO ESCs under EPI treatment, and our […]
was indeed required for ESC to survive DNA damage (Fig. S9d). […]
localization of γ-H2AX foci and HR repair related proteins (Rad51 and CtIP) or NHEJ repair related protein (DNA-PKcs) in ESCs (Fig. 5f, 5g, S11d, and S11e). We further applied two specific inhibitors (YU238259 and NU7441) to block HR and NHEJ repair respectively (Stachelek et al., […]
affect both HR and NHEJ repair pathways in ESCs (Fig. S11f). To better clarify the mechanisms of TRIM66 involved in the regulation of DNA damage, w e performed the immunofluorescence assay […]
to bind at DNA damage sites (Fig. S11a). […] We also analyzed the relevance of […]
depletion of TRIM66 disrupted the negative correlation of H3K56ac and γ-H2AX (Fig. 5d). In view of the recognition of TRIM66 and H3K56ac (Fig.2 and Fig. S10), we speculated that the loose winding of nucleosomal DNA nearby the DNA damage sites might expose H3K56ac to its reader TRIM66, while TRIM66 deficiency impeded the erasure of H3K56ac at DNA damage sites and the recruitment of DNA repair proteins. […]

Another assay addresses T1, TRIM33_(882-1087) (human, UniProt Q9UPN9 882-1087).
T1 construct: also called TRIM33 PHD-Bromo; TRIM33 PHD-Bromodomain; source: E. coli BL21 (DE3), purified (Ni-chelating column, SUMO protease, second nickel column, Superdex 75)
T1 sequence (looked up): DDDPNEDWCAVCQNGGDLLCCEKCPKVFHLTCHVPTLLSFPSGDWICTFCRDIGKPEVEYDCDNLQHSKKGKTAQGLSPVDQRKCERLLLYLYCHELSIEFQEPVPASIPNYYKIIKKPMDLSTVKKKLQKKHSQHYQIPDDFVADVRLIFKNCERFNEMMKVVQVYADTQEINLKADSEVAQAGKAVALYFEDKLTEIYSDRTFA
Description: ITC; 0.7–4 mM peptide injected into a cell with 0.05 or 0.11–0.15 mM TRIM66-PHD-Bromo (or its mutants), 0.12 mM TRIM24-PHD-Bromo or 0.05 mM TRIM33 PHD-Bromo; 25 °C; 20 mM Tris, 100 mM NaCl, pH 7.5; MicroCal PEAQ-ITC; single measurement. As to conditions: both partners purified.

The next assay addresses T2, TRIM24_(824-1006) (human, UniProt O15164 824-1006).
T2 construct: TRIM24, human, PHD-Bromodomain, residues 824-1006, amplified from a human bone marrow cDNA library, in pET-SUMO-28a (+); also called TRIM24-PHD-Bromo; TRIM24 PHD-Bromodomain; source: E. coli BL21 (DE3), purified (Ni-chelating column, SUMO protease, second nickel column, Superdex 75)
T2 sequence (looked up): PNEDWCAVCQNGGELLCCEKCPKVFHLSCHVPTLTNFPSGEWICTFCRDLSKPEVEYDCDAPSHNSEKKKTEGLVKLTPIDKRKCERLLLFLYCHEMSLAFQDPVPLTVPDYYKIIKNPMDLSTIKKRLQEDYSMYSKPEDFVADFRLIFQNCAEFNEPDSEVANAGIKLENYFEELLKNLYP
The description is as above. The conditions noted are these: both partners purified.

For assay [6], the target named is T3, TRIM66_(965-1160) N969A (human, UniProt O15016 965-1160, N969A). Description: ITC.
Target sequence in this assay (O15016 1100-1295 N1104A): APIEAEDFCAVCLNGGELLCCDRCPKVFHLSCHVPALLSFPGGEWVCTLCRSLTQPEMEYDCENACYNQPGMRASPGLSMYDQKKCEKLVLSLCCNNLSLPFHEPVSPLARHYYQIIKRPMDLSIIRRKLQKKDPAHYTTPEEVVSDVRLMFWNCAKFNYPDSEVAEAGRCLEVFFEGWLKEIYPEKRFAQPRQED
Assay [7] deals with T4, TRIM66_(965-1160) E968A (human, UniProt O15016 965-1160, E968A). As to the kind of experiment: ITC.
Target sequence in this assay (O15016 1100-1295 E1103A): as the sequence (O15016 1100-1295 N1104A) above, with E4A, A5N counted along it
Assay [8] deals with TRIM66-MUT_(968-1160) (PHD-Bromodomain) (human) (UniProt O15016). Description: ITC; MicroCal PEAQ-ITC, 25 °C, 20 mM Tris, 100 mM NaCl, pH 7.5; 0.7-4 mM peptide injected into the cell with 0.12 mM TRIM24-PHD-Bromo, 0.05 mM TRIM33 PHD-Bromo, or 0.05 or 0.11-[…] TRIM66-PHD-Bromo (or its mutants); single measurement, errors from the fitting curve.
In assay [9] the target is T3, TRIM66_(965-1160) N969A. The description is as above.
Assay [10] deals with T4, TRIM66_(965-1160) E968A. The description is as above.
Assay [11] addresses T5, TRIM33_(882-1087) (PHD-Bromodomain) (human, UniProt Q9UPN9 882-1087).
T5 construct: also called TRIM33 PHD-Bromo; source: E. coli BL21 (DE3), purified (Ni column, SUMO protease, second Ni column, Superdex 75)
T5 sequence (looked up): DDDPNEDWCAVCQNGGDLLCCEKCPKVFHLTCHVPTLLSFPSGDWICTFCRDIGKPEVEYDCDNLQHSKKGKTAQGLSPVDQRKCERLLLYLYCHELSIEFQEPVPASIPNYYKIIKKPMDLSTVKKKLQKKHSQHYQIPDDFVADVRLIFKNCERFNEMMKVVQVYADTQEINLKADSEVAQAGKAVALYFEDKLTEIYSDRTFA
As to the kind of experiment: ITC; MicroCal PEAQ-ITC, 25 °C, 20 mM Tris, 100 mM NaCl, pH 7.5; 0.7-4 mM peptide injected into the cell with 0.12 mM TRIM24-PHD-Bromo, 0.05 mM TRIM33 PHD-Bromo, or 0.05 or 0.11-0.15 mM TRIM66-PHD-Bromo (or its mutants); single measurement, errors from the fitting curve. The conditions noted are these: both partners purified.

Assay [12] addresses T6, TRIM24_(824-1006) (PHD-Bromodomain) (human, UniProt O15164 824-1006).
T6 construct: TRIM24 PHD-Bromodomain, Homo sapiens, residues 824-1006 of UniProt O15164 (Isoform long); also called TRIM24-PHD-Bromo; source: E. coli BL21 (DE3), purified (Ni column, SUMO protease, second Ni column, Superdex 75)
T6 sequence (looked up): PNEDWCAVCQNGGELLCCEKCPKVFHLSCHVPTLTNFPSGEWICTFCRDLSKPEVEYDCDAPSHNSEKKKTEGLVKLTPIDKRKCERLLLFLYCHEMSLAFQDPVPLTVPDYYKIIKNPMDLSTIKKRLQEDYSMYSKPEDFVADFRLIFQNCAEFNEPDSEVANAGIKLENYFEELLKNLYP
The assay is described as above. The conditions noted are these: both partners purified.

In the case of “H3_(48-57)K56ac peptide (from UniProt P68431 49-58)”, the results for the stoichiometry N in [1] and in assay [2] were 1.07 and 1.23, respectively. In addition, the dissociation constant (Kd) in assay [2] was 127 µM; in [3] it was 109 µM.
With bleomycin, the “survival of TRIM66-KO versus WT ESCs (in words)” value with ESCs [4] was “significantly impaired”; with ESCs [4] (listed as bleomycin), “significantly reduced the survival rates”.
As to `O=c1cc(N2CCOCC2)oc2c(-c3cccc4c3sc3ccccc34)cccc12` [NU7441], the “survival rate of TRIM66-depleted ESCs (in words)” value in the assay on ESCs [5] is recorded as “significant decrease in the survival rate”.
Regarding YU238259, in the assay with ESCs [5], the “survival rate of TRIM66-depleted ESCs (in words)” value is “significant decrease in the survival rate”.

B1: H3_(1-12) peptide, unmodified (peptide, UniProt P68431 2-13, looked up)
peptide: ARTKQTARKSTG
notes: histone H3, residues 1-12, unmodified; also called unH3_(1-12); unmodified H3_(1-12); source: synthetic peptide (GL Biochem, Shanghai)
As for B1, the Kd came to 3.39 µM with TRIM33_(882-1087), 51.4 µM in the assay with TRIM24_(824-1006), 72.6 µM in the assay with TRIM66_(965-1160) N969A [6] and 34.8 µM with TRIM66_(965-1160) E968A [7].

B2: H3_(1-12) peptide (peptide, UniProt P68431 2-13, looked up)
peptide: ARTKQTARKSTG
notes: histone H3.1, Homo sapiens, residues 1-12; also called unH3_(1-12); unmodified H3_(1-12); source: synthetic peptide (GL Biochem)
As for B2, the stoichiometry N stood at 1.12 in [8]; 0.84 with TRIM66_(965-1160) N969A [9]; 0.96 in assay [1]; 1.04 with TRIM66_(965-1160) E968A [10]; 1.06 in [11]; 0.92 in assay [12]. The Kd stood at 72.6 µM with TRIM66_(965-1160) N969A [9] and 34.8 µM with TRIM66_(965-1160) E968A [10].
